{"source": "paper PMC3682188", "about": "“Membrane Binding and Self-Association of the Epsin N-Terminal Homology Domain” (Journal of Molecular Biology, 2012)", "molecular_target": "the molecule itself", "assay": "EPR spectroscopy (spin-spin interaction of singly labeled protein, with spin dilution); bound to preformed lipid tubules (10% cholesterol/40% phosphatidylcholine/40% galactocerebrosides/10% PIP2); 10 uM protein with 60 ug tubes in 100 ul, 10 min at RT, pelleted at 152,800g; 20 mM Hepes pH 7.4, 150 mM NaCl; fully labeled compared with 33% labeled and 67% unlabeled protein", "data": [{"protein": "rat epsin 1 ENTH domain (1-164), spin-labeled at residue 14 (domain or fragment, MTSL spin label (R1 side chain) on the cysteine introduced at position 14, cysteine-less background (C96S) with a single cysteine at position 14; same construct as the crystallography study (PDB 1H0A); also called V14; source: E. coli BL21 (DE3), purified (glutathione-Sepharose, thrombin, ion exchange, gel filtration), labeled with MTSL; not shown: GST, N-terminal, cleaved) GSPGIHMSTSSLRRQMKNICHNYSEAEIKVREATSNDPWGPSSSLMSEIADLTYNVVAFSEIMSMIWKRLNDHGKNWRHVYKAMTLMEYLIKTGSERVSQQSKENMYAVQTLKDFQYVDRDGKDQGVNVREKAKQLVALLRDEDRLREERAHALKTKEKLAQTATASSAA", "values": [{"measurement": "binding result", "value": "binds"}]}]}
